Laboratory results as given in PMC3565348, “Modeling of Anopheles minimus Mosquito NADPH-Cytochrome P450 Oxidoreductase (CYPOR) and Mutagenesis Analysis” (International Journal of Molecular Sciences, 2013).

Assays:
Δ55AnCYPOR = target: T1, Δ55AnCYPOR (Anopheles minimus, UniProt A4ZIT2); test: flavin content of purified protein, fluorometric; type: binding; settings: co-purified flavin; no affinity constant
T1 construct: soluble form lacking the N-terminal membrane region (Δ55), pET28a vector, expressed in E. coli BL21 (DE3), purified
T1 sequence (A4ZIT2 56-679): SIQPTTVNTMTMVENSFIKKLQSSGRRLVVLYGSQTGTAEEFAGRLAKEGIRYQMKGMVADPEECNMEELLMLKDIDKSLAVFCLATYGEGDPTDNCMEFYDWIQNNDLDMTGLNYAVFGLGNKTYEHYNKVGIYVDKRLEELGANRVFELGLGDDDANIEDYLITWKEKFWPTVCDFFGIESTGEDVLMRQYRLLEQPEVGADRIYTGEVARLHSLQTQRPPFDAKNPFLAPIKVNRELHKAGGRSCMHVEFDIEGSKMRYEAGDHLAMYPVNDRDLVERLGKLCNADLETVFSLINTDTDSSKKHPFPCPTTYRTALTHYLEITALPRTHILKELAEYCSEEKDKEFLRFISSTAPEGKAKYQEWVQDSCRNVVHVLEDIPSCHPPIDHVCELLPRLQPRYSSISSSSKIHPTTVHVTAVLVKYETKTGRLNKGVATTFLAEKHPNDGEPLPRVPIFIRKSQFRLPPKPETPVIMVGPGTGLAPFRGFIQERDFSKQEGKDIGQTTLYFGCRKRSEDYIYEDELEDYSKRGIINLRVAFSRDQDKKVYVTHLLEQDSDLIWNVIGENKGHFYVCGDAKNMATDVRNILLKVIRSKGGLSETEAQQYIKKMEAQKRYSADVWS
Source text: flavin content of purified protein, fluorometric on Δ55AnCYPOR

[1] = test system: T2, CYP6AA3 reconstituted with rat CYPOR; test: benzyloxyresorufin O-dealkylation, fluorescence of resorufin, microsomes + purified CYPOR; type: biochemical, Anopheles minimus; settings: 50 mM Tris-HCl pH 7.5; rat CYPOR as redox partner; apparent Km; read-out: CYP3AA3-mediated BROD activity (pmole resorufin produced/min/pmol P450) ^a / Km
T2 construct: CYP6AA3 in Sf9 baculovirus microsomes; purified rat CYPOR (pIN-rat CYPOR, E. coli C43 (DE3), Ni-NTA) added, ratio 3:1; with NADPH--cytochrome P450 reductase (Rattus norvegicus)

[2] = test system: T3, CYP6AA3 reconstituted with flAnCYPOR; test: as above; type: biochemical, Anopheles minimus; settings: 50 mM Tris-HCl pH 7.5; wild-type flAnCYPOR; apparent Km; read-out: CYP3AA3-mediated BROD activity (pmole resorufin produced/min/pmol P450) ^a / Km
T3 construct: CYP6AA3 in Sf9 baculovirus microsomes; with NADPH--cytochrome P450 reductase

[3] = test system: NC(=O)C1=CN([C@@H]2O[C@H](COP(=O)(O)OP(=O)(O)OC[C@H]3O[C@@H](n4cnc5c(N)ncnc54)[C@H](OP(=O)(O)O)[C@@H]3O)[C@@H](O)[C@H]2O)C=CC1; test: purified protein; type: biochemical, Anopheles minimus; settings: 0.1 M Tris-Cl pH 7.5, 25 °C, co-substrate cytochrome c, extra flavins added
purified protein = substrate: NC(=O)C1=CN([C@@H]2O[C@H](COP(=O)(O)OP(=O)(O)OC[C@H]3O[C@@H](n4cnc5c(N)ncnc54)[C@H](OP(=O)(O)O)[C@@H]3O)[C@@H](O)[C@H]2O)C=CC1; test: purified protein; settings: 0.1 M Tris-Cl pH 7.5, 25 °C, co-substrate cytochrome c, extra flavins added

Cc1cc2nc3c(=O)[nH]c(=O)nc-3n(C[C@H](O)[C@H](O)[C@H](O)COP(=O)(O)OP(=O)(O)OC[C@H]3O[C@@H](n4cnc5c(N)ncnc54)[C@H](O)[C@@H]3O)c2cc1C [FAD]
FAD ^a (Δ55AnCYPOR): 0.64 ± 0.03 mol/mol

Cc1cc2nc3c(=O)[nH]c(=O)nc-3n(C[C@H](O)[C@H](O)[C@H](O)COP(=O)(O)O)c2cc1C [FMN]
FMN ^a (Δ55AnCYPOR): 0.52 ± 0.01 mol/mol

O=c1ccc2nc3ccc(OCc4ccccc4)cc3oc-2c1 [benzyloxyresorufin]
Km [1]: 1.69 ± 0.24 µM | Km [2]: 1.9 ± 0.61 µM

Δ55AnCYPOR (Anopheles minimus; C427R/L219F/L86F)
Km [3]: 7.02 ± 1.75 µM

Δ55AnCYPOR (Anopheles minimus; L219F/L86F)
Km [3]: 6.49 ± 1.19 µM

Δ55AnCYPOR (Anopheles minimus; L219F/L86F/W678A)
Km [3]: 3.34 ± 0.83 µM

Δ55AnCYPOR (Anopheles minimus; L219F/L86F/W678H)
Km [3]: 1.91 ± 0.44 µM

B1: Δ55AnCYPOR (Anopheles minimus) (protein)
chain: SIQPTTVNTMTMVENSFIKKLQSSGRRLVVLYGSQTGTAEEFAGRLAKEGIRYQMKGMVADPEECNMEELLMLKDIDKSLAVFCLATYGEGDPTDNCMEFYDWIQNNDLDMTGLNYAVFGLGNKTYEHYNKVGIYVDKRLEELGANRVFELGLGDDDANIEDYLITWKEKFWPTVCDFFGIESTGEDVLMRQYRLLEQPEVGADRIYTGEVARLHSLQTQRPPFDAKNPFLAPIKVNRELHKAGGRSCMHVEFDIEGSKMRYEAGDHLAMYPVNDRDLVERLGKLCNADLETVFSLINTDTDSSKKHPFPCPTTYRTALTHYLEITALPRTHILKELAEYCSEEKDKEFLRFISSTAPEGKAKYQEWVQDSCRNVVHVLEDIPSCHPPIDHVCELLPRLQPRYSSISSSSKIHPTTVHVTAVLVKYETKTGRLNKGVATTFLAEKHPNDGEPLPRVPIFIRKSQFRLPPKPETPVIMVGPGTGLAPFRGFIQERDFSKQEGKDIGQTTLYFGCRKRSEDYIYEDELEDYSKRGIINLRVAFSRDQDKKVYVTHLLEQDSDLIWNVIGENKGHFYVCGDAKNMATDVRNILLKVIRSKGGLSETEAQQYIKKMEAQKRYSADVWS
Km (purified protein): 9.61 ± 0.30 µM
